Article PMC7022901, “Back to GroEL-Assisted Protein Folding: GroES Binding-Induced Displacement of Denatured Proteins from GroEL to Bulk Solution” (Biomolecules, 2020)

Tests used:
GroEL chaperonin [1] = molecular target: T1, GroEL chaperonin (Escherichia coli, UniProt P0A6F5 1-548); test: native gel or EMSA; non-denaturing electrophoresis of GroEL with equimolar fluorescein-labeled denatured proteins in the presence of DTT and Mg-ADP, before and after 10 min incubation with a two-fold molar excess of GroES; Coomassie staining and fluorescence; settings: both partners purified
T1 construct: GroEL (hsp60) chaperonin of Escherichia coli, expressed from the cloned groE operon; 14 identical subunits of 57 kDa in two heptameric rings; no tag is mentioned; also called hsp60; GroEL14; source: E. coli HB101, multicopy plasmid pGroE4 (groE operon of E. coli in pACYC184), purified; copies: 14
T1 sequence (P0A6F5 whole entry): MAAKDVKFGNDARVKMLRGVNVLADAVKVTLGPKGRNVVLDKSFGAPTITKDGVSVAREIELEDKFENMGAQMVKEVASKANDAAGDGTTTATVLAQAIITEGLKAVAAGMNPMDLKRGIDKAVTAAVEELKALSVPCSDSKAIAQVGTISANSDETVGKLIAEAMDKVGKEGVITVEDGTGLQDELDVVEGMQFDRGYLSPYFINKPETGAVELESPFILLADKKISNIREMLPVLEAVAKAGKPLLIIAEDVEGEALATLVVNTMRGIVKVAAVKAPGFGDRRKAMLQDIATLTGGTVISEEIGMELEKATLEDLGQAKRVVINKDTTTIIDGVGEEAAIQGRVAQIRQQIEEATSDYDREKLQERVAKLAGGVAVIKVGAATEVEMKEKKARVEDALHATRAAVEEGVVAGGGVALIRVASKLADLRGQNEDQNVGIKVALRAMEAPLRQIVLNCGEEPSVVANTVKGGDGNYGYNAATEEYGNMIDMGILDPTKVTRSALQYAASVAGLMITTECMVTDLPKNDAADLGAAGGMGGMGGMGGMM

GroEL chaperonin [2] = molecular target: T1, GroEL chaperonin; test: FRET or BRET; streptavidin trap: denatured biotin- and fluorescein-labeled substrate diluted into equimolar GroEL, then streptavidin-aequorin and free biotin added; BRET (I520/I470) from aequorin to fluorescein reports substrate free in bulk solution; with or without 10 mM Mg-ATP and two-fold molar excess of GroES; settings: both partners purified

| binding result (GroEL chaperonin [1]) | binding result (GroEL chaperonin [2]) | Binder |
| --- | --- | --- |
| binds |  | GroES co-chaperonin (natural protein, Escherichia coli, UniProt P0A6F9 1-97, looked up, GroES (hsp10) co-chaperonin of Escherichia coli, expressed from the cloned groE operon; 7 identical subunits of ~10 kDa; no tag is mentioned; also called hsp10; GroES7; source: E. coli HB101, multicopy plasmid pGroE4 (groE operon of E. coli in pACYC184), purified) MNIRPLHDRVIVKRKEVETKSAGGIVLTGSAAAKSTRGEVLAVGNGRILENGEVKPLDVKVGDIVIFNDGYGVKSEKIDNEEVLIMSESDILAIVEA |
|  | binds | biotin- and fluorescein-labeled pig mitochondrial malate dehydrogenase, early refolding intermediate (natural protein, UniProt P00346 25-338, looked up, fluorescein label (5(6)-FAM, SE); biotin (biotin succinimide ester), pig mitochondrial malate dehydrogenase; also called BFM; MDH; source: bought: Sigma or Serva, additionally purified by ion-exchange and size-exclusion chromatography) AKVAVLGASGGIGQPLSLLLKNSPLVSRLTLYDIAHTPGVAADLSHIETRATVKGYLGPEQLPDCLKGCDVVVIPAGVPRKPGMTRDDLFNTNATIVATLTAACAQHCPDAMICIISNPVNSTIPITAEVFKKHGVYNPNKIFGVTTLDIVRANAFVAELKGLDPARVSVPVIGGHAGKTIIPLISQCTPKVDFPQDQLSTLTGRIQEAGTEVVKAKAGAGSATLSMAYAGARFVFSLVDAMNGKEGVVECSFVKSQETDCPYFSTPLLLGKKGIEKNLGIGKISPFEEKMIAEAIPELKASIKKGEEFVKNMK |
